The source of these data is patent US20090162353A1 (MacroGenics, published 2009).

Assay [1] addresses T1, vaccinia virus recombinant B5 protein (vaccinia virus, UniProt Q01227 20-275). Briefly: ELISA, B5 capture, IgG detect (luminescence) [C]. (In general: In an ELISA, binding on a coated surface is turned into a signal by an enzyme label.)
Assay [2] addresses T1, vaccinia virus recombinant B5 protein. Briefly: surface plasmon resonance; format not stated; target taken from the text. (In general: In SPR one partner is held on a chip, and binding of the other changes the refractive index at the surface.)

B1: Ch8AH8AL (antibody, V domains shown)
VH: EVQLVESGGGLIKPGGSLRLSCAASGFIFRDYNINWVRQAPGKGLEWLGFIRTRASGRSTEYSASVKGRFTISRDDSKNIAYLHINSLKMEDTAVYYCAKKGDSYYYMDFWGKGTAVTVSS
VL: ELALTQPASVSGSPGQSITISCTGGRSDLGDSNFVSWYQQYPGKAPKLLIYQVNKRPSGVPDRFSASKSANTASLTISGLQTEDEADYFCSSYTTTSTYVFGIGTKVVVLG
Turning to B1, the concentration giving a half-maximal response (EC50 (read off the curve)) in assay [1] was ~0.03 µg/mL. For the same molecule, in assay [2], the Kd was ≤ 600 pM, the koff was ≤ 1e-05 s⁻¹ and the kon came out at 20000 M⁻¹ s⁻¹.

As a reminder, the EC50 (read off the curve) is the midpoint of the concentration-response curve. Usually Kd stands for the concentration at which binding is half-saturated. What is called koff is the rate constant with which the complex falls apart. In general, kon refers to the second-order rate constant of association.
